# Reference: PMC3481213
# B1: BdCAD3 (Brachypodium distachyon) (protein)
# chain: MEQGKAALGWAARDASGHLSPYNFSRRVQKDDDVTIKVLFCGICHTDLHIIKNEWGNALYPIVPGHEVVGVVTDVGPGVKNFKAGETVGVGYFLDSCRTCDSCSKGHENYCPTLVLTSNGVDYDGATTQGGFSDVVVVNQDYVVRVPDTLPPDGAAPLLCAGVTVYSPMMQYGLNAPGKHLGVVGLGGLGHMAVKFGKAFGMKVTVISSSLRKREEALDRLGADDFLVSSDAEQMKAAAGAMDGIIDTVSAGHPIVPLLELLRPMGQMVVCGAPSEPLQLPAYAVITGGKRIAGNGVGSVRDCQAMLDFAGEHGITADVEVVKMDYVNTAVERLERNDVRYRFVIDVAGSLQQGGAA
# B2: BdCAD5 (Brachypodium distachyon) (protein)
# chain: MGSIASEERTVTGWAARDADGHLSPYTYTLRKTGPEDVLVKVLYCGICHTDIHQAKNHLGASKYPMVPGHEVVGEVVEVGGEVSKYSAGDVVGVGVIVGCCRECRPCKASVEQYCNKRIWSYNDVYTDGRPTQGGFSSAMVVDQKFVVRIPAGLAPEQAAPLLCAGVTVYSPLKHFGLMSPGLRGGILGLGGVGHMGVKVAKSMGHHVTVISSSGKKRAEAMDDLGADAYLVSSDADQMAAAADSLDYVIDTVPVKHPLEPYLSLLKMDGKLVLMGVIGEPLSFVSPMVMLGRKSITGSFIGSMEETEEVLKFCVEKGLTSQIEVVKMDYLNEALERLERNDVRYRFVVDVAGSKIEDAA
# Tests used:
# [1] = biological target: Brachypodium distachyon cinnamyl alcohol dehydrogenase 5 (BdCAD5), recombinant 6xHis-tagged (Brachypodium distachyon); experiment: SEC
# purified protein [2] = substrate: COc1cc(/C=C/CO)ccc1O; experiment: purified protein; conditions: co-substrate NADP+, 100 mM TRIS-HCl pH 8.8, 23 °C, n = 1
# purified protein [3] = substrate: COc1cc(/C=C/C=O)ccc1O; experiment: purified protein; conditions: co-substrate NADPH
# [4] = 100 mM sodium acetate pH 5.35, 23 °C
# [5] = 200 mM potassium phosphate pH 6.25, 23 °C
Molecule,percent of peak area at the dimer position [1] [%],stoichiometry N [1],Km (purified protein [2]) [µM],Vmax (purified protein [2]) [µmol/min/mg],kcat (purified protein [2]) [s⁻¹],kcat/Km (purified protein [2]) [M⁻¹ s⁻¹],Km (purified protein [3]; [4]) [µM],Vmax (purified protein [3]; [4]) [µmol/min/mg],kcat (purified protein [3]; [4]) [s⁻¹],kcat/Km (purified protein [3]; [4]) [M⁻¹ s⁻¹],Km (purified protein [3]; [5]) [µM],Vmax (purified protein [3]; [5]) [µmol/min/mg],kcat (purified protein [3]; [5]) [s⁻¹],kcat/Km (purified protein [3]; [5]) [M⁻¹ s⁻¹]
"Brachypodium distachyon cinnamyl alcohol dehydrogenase 5 (BdCAD5), recombinant 6xHis-tagged (enzyme)",24,2,–,–,–,–,–,–,–,–,–,–,–,–
B1,–,–,509.1 ± 134.0,36.7,34.3,67000,33.3 ± 3.80,9.26,8.66,260000,–,–,–,–
B2,–,–,1.44 ± 0.24,7.91,10.3,7.19e+06,–,–,–,–,3.1 ± 0.44,29.5,38.6,1.29e+07
